Assay results as given in patent publication US20070036811A1 (KRAEFTENS BEKAEMPELSE, published 2007).

B1: ML-IAP83 (GMGSEELRL) (peptide)
peptide: GMGSEELRL
notes: Synthetic peptide bought from Research Genetics, >80% purity
B2: ML-IAP54 (QILGQLRPL) (peptide)
peptide: QILGQLRPL
notes: as for B1
B3: ML-IAP280 (QLCPICRAPV) (peptide)
peptide: QLCPICRAPV
notes: as for B1
B4: ML-IAP154 (LLRSKGRDFV) (peptide)
peptide: LLRSKGRDFV
notes: as for B1
B5: ML-IAP230 (VLEPPGARDV) (peptide)
peptide: VLEPPGARDV
notes: as for B1
B6: ML-IAP90 (RLASFYDWPL) (peptide)
peptide: RLASFYDWPL
notes: as for B1
B7: ML-IAP245 (RLQEERTCKV) (peptide)
peptide: RLQEERTCKV
notes: as for B1
B8: ML-IAP34 (SLGSPVLGL) (peptide)
peptide: SLGSPVLGL
notes: as for B1
B9: ML-IAP98 (PLTAEVPPEL) (peptide)
peptide: PLTAEVPPEL
notes: as for B1
B10: ML-IAP99 (LTAEVPPEL) (peptide)
peptide: LTAEVPPEL
notes: as for B1

These binders were tested against HLA-A2 (human) (assay: assembly assay, T2 cells, [35S]-labelled class I MHC, immunoprecipitation and IEF).
For B1, the “C50 (peptide concentration for half maximal binding)” value was 30 µM. With B2 the “C50 (peptide concentration for half maximal binding)” value was 1 µM. For B3, the “C50 (peptide concentration for half maximal binding)” value was 20 µM. For B4, the “C50 (peptide concentration for half maximal binding)” value was 10 µM. For B5, the “C50 (peptide concentration for half maximal binding)” value was greater than 100 µM. B6 was tested, and the “C50 (peptide concentration for half maximal binding)” value was 0.2 µM. B7 was tested, and the “C50 (peptide concentration for half maximal binding)” value was 1 µM. B8 was tested, and the “C50 (peptide concentration for half maximal binding)” value was 1 µM. With B9 the “C50 (peptide concentration for half maximal binding)” value was greater than 100 µM. For B10, the “C50 (peptide concentration for half maximal binding)” value was 0.9 µM.
